Experimental data from EP4700046A1.

B1: IgG_18 (antibody, part only; not given: VL CDR2; constant regions, V domains shown, part only)
VH: EVQLLESGGGLVQPGGSLRLSCAASGFTFSNYAMSWVRQAPGKGLEWVSSISPSGSSKYYADSVKGRFTISRDNSKNTLYLQMNSLRAEDTAVYYCAKHNRHFDYWGQGTLVTVSS
VL, part: QSVLTQPPSASGTPGQRVTISCTGSSSNIGSHYVSWYQQLPGTAPKLLIYHRPSGVPDRFSGSKSGTSASLAISGLRSEDEADYYCGSWDDSLNAYVFGGGTKLTVL
B2: IgG_56 (antibody, part only; not given: VL CDR2; constant regions, V domains shown, part only)
VH: EVQLLESGGGLVQPGGSLRLSCAASGFTFSGYPMSWVRQAPGKGLEWVSSISSSGGNTYYADSVKGRFTISRDNSKNTLYLQMNSLRAEDTAVYYCARFGIHHPDRALYYANAMDVWGQGTLVTVSS
VL, part: QSVLTQPPSASGTPGQRVTISCSGSSSNIGNNDVNWYQQLPGTAPKLLIYQRPSGVPDRFSGSKSGTSASLAISGLRSEDEADYYCATWDASLSAYVFGGGTKLTVL
B3: IgG_54 (antibody, part only; not given: VL CDR2; constant regions, V domains shown, part only)
VH: EVQLLESGEGLVQPGGSLRLSCAASGFTFSNYSMSWVRQAPGKGLEWVSGISSGGGSKYYADSVKGRFTISRDNSKNTLYLQMNSLRAEDTAVYYCARQATAFDYWGQGTLVTVSS
VL, part: QSVLTQPPSASGTPGQRVTISCTGSSSNIGNNSVTWYQQLPGTAPKLLIYNRPSGVPDRFSGSKSGTSASLAISGLRSEDEADYYCGTWDDSLSAYVFCGGTKLTVL

What follows are binders tested against 6xHis-SUMO-CXCR2(NTD) (human) (UniProt P25025) (assay: BLI (Octet R4), His-tagged SUMO-CXCR2(NTD) on HIS1K biosensor, IgG as analyte, 1:1 model).
Chain of UniProt P25025 (P25025 1-48): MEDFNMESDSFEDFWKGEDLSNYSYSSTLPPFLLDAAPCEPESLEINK

Q: For B1, which Kd is on record?
A: The Kd was 8.9 nM.

Q: Which Kd does the source give for B2 here?
A: The Kd was 5.6 nM.

Q: With B3 as the binder, how does the Kd read?
A: Its Kd is 250 nM.
